Source: the supplement of paper PMC9112550, “Optimization of the antimicrobial peptide Bac7 by deep mutational scanning” (BMC Biology, 2022)

test system: Escherichia coli TOP10; experiment: shrunken log2 fold change of peptide-encoding DNA abundance (4.5 h post-induction vs induction); higher = less antimicrobial activity (less host growth inhibition); details: time post-induction: 4.5 h; library: site-saturation at positions 5, 18, 19, 20
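Further: peptides expressed intracellularly from a pBAD plasmid library in pooled LB shake-flask culture, induced with 0.3% L-arabinose, DNA abundance read by NGS, three biological replicates, DESeq2 with apeglm shrinkage.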

Row | Sequence | shrunken log2 fold change
1 | RRIRLRPPRLPRPRPRPKCCPRP | -0.166
2 | RRIRLRPPRLPRPRPRPKDRPRP | 0.0663
3 | RRIRLRPPRLPRPRPRPKHKPRP | -0.103
4 | RRIRLRPPRLPRPRPRPKHPPRP | -0.09
5 | RRIRLRPPRLPRPRPRPKHYPRP | -0.406
6 | RRIRLRPPRLPRPRPRPKINPRP | -0.396
7 | RRIRLRPPRLPRPRPRPKLKPRP | 0.295
8 | RRIRLRPPRLPRPRPRPKMFPRP | 0.0156
9 | RRIRLRPPRLPRPRPRPKMGPRP | 0.0108
10 | RRIRLRPPRLPRPRPRPKNGPRP | -0.203
11 | RRIRLRPPRLPRPRPRPKNNPRP | -0.297
12 | RRIRLRPPRLPRPRPRPKPHPRP | 0.207
13 | RRIRLRPPRLPRPRPRPKQHPRP | -0.103
14 | RRIRLRPPRLPRPRPRPKQMPRP | 0.0542
15 | RRIRLRPPRLPRPRPRPKRDPRP | 0.43
16 | RRIRLRPPRLPRPRPRPKRGPRP | 0.483
17 | RRIRLRPPRLPRPRPRPKRIPRP | 0.109
18 | RRIRLRPPRLPRPRPRPKRTPRP | 0.21
19 | RRIRLRPPRLPRPRPRPKRYPRP | 0.0464
20 | RRIRLRPPRLPRPRPRPKWDPRP | 0.184
21 | RRIRLRPPRLPRPRPRPKYKPRP | -0.486
22 | RRIRLRPPRLPRPRPRPKYYPRP | -1.1
23 | RRIRLRPPRLPRPRPRPLADPRP | -0.0654
24 | RRIRLRPPRLPRPRPRPLDIPRP | -0.15
25 | RRIRLRPPRLPRPRPRPLDKPRP | -0.122

Row | Sequence | shrunken log2 fold change
26 | RRIRLRPPRLPRPRPRPLEYPRP | -0.116
27 | RRIRLRPPRLPRPRPRPLFQPRP | -0.322
28 | RRIRLRPPRLPRPRPRPLGMPRP | 0.0609
29 | RRIRLRPPRLPRPRPRPLGYPRP | -1.79
30 | RRIRLRPPRLPRPRPRPLHIPRP | -0.367
31 | RRIRLRPPRLPRPRPRPLHMPRP | -0.112
32 | RRIRLRPPRLPRPRPRPLHYPRP | -0.00799
33 | RRIRLRPPRLPRPRPRPLKMPRP | 1.29
34 | RRIRLRPPRLPRPRPRPLLHPRP | -0.0703
35 | RRIRLRPPRLPRPRPRPLLLPRP | -0.00929
36 | RRIRLRPPRLPRPRPRPLMLPRP | -0.257
37 | RRIRLRPPRLPRPRPRPLNPPRP | -0.0831
38 | RRIRLRPPRLPRPRPRPLPAPRP | 0.585
39 | RRIRLRPPRLPRPRPRPLSMPRP | -0.163
40 | RRIRLRPPRLPRPRPRPLSPPRP | 0.0444
41 | RRIRLRPPRLPRPRPRPLSWPRP | 0.0186
42 | RRIRLRPPRLPRPRPRPLTFPRP | -0.633
43 | RRIRLRPPRLPRPRPRPLWCPRP | 0.159
44 | RRIRLRPPRLPRPRPRPLWLPRP | -0.0303
45 | RRIRLRPPRLPRPRPRPLYIPRP | -0.932
46 | RRIRLRPPRLPRPRPRPLYSPRP | -1.1
47 | RRIRLRPPRLPRPRPRPLYTPRP | -0.461
48 | RRIRLRPPRLPRPRPRPMCEPRP | -0.0027
49 | RRIRLRPPRLPRPRPRPMCGPRP | 0.0137
50 | RRIRLRPPRLPRPRPRPMCRPRP | -0.0985

Row | Sequence | shrunken log2 fold change
51 | RRIRLRPPRLPRPRPRPMDDPRP | -0.117
52 | RRIRLRPPRLPRPRPRPMEFPRP | -0.00133
53 | RRIRLRPPRLPRPRPRPMEHPRP | -0.00579
54 | RRIRLRPPRLPRPRPRPMFKPRP | -0.245
55 | RRIRLRPPRLPRPRPRPMFQPRP | -1.11
56 | RRIRLRPPRLPRPRPRPMGGPRP | 0.26
57 | RRIRLRPPRLPRPRPRPMGIPRP | 0.0924
58 | RRIRLRPPRLPRPRPRPMGKPRP | -0.353
59 | RRIRLRPPRLPRPRPRPMGRPRP | 0.0605
60 | RRIRLRPPRLPRPRPRPMHFPRP | 0.108
61 | RRIRLRPPRLPRPRPRPMHTPRP | 0.25
62 | RRIRLRPPRLPRPRPRPMKYPRP | -0.236
63 | RRIRLRPPRLPRPRPRPMLLPRP | -0.56
64 | RRIRLRPPRLPRPRPRPMQEPRP | 0.244
65 | RRIRLRPPRLPRPRPRPMRYPRP | 0.0322
66 | RRIRLRPPRLPRPRPRPMSAPRP | 0.344
67 | RRIRLRPPRLPRPRPRPMTGPRP | -0.0115
68 | RRIRLRPPRLPRPRPRPMVPPRP | 0.096
69 | RRIRLRPPRLPRPRPRPMVYPRP | -0.0262
70 | RRIRLRPPRLPRPRPRPMWKPRP | -0.0297
71 | RRIRLRPPRLPRPRPRPMWYPRP | 0.0493
72 | RRIRLRPPRLPRPRPRPNCYPRP | -0.422
73 | RRIRLRPPRLPRPRPRPNEWPRP | -0.227
74 | RRIRLRPPRLPRPRPRPNGKPRP | -0.0324
75 | RRIRLRPPRLPRPRPRPNHIPRP | -0.671

Row | Sequence | shrunken log2 fold change
76 | RRIRLRPPRLPRPRPRPNHRPRP | 0.00288
77 | RRIRLRPPRLPRPRPRPNHTPRP | -0.33
78 | RRIRLRPPRLPRPRPRPNHVPRP | -0.449
79 | RRIRLRPPRLPRPRPRPNIFPRP | 0.104
80 | RRIRLRPPRLPRPRPRPNIHPRP | -0.621
81 | RRIRLRPPRLPRPRPRPNIIPRP | -0.313
82 | RRIRLRPPRLPRPRPRPNKHPRP | -0.43
83 | RRIRLRPPRLPRPRPRPNNDPRP | -0.763
84 | RRIRLRPPRLPRPRPRPNNNPRP | -0.673
85 | RRIRLRPPRLPRPRPRPNNYPRP | -0.577
86 | RRIRLRPPRLPRPRPRPNPTPRP | -0.149
87 | RRIRLRPPRLPRPRPRPNPVPRP | 0.0363
88 | RRIRLRPPRLPRPRPRPNPWPRP | 0.0455
89 | RRIRLRPPRLPRPRPRPNPYPRP | -0.0545
90 | RRIRLRPPRLPRPRPRPNRDPRP | -0.124
91 | RRIRLRPPRLPRPRPRPNREPRP | -0.118
92 | RRIRLRPPRLPRPRPRPNSFPRP | -0.191
93 | RRIRLRPPRLPRPRPRPNSGPRP | -0.095
94 | RRIRLRPPRLPRPRPRPNSSPRP | -0.11
95 | RRIRLRPPRLPRPRPRPNTCPRP | -0.823
96 | RRIRLRPPRLPRPRPRPNTHPRP | -0.473
97 | RRIRLRPPRLPRPRPRPNVIPRP | -0.106
98 | RRIRLRPPRLPRPRPRPNWNPRP | -0.386
99 | RRIRLRPPRLPRPRPRPNYFPRP | -0.121
100 | RRIRLRPPRLPRPRPRPNYGPRP | -0.0135

Row | Sequence | shrunken log2 fold change
101 | RRIRLRPPRLPRPRPRPPAYPRP | 0.0545
102 | RRIRLRPPRLPRPRPRPPCWPRP | 0.16
103 | RRIRLRPPRLPRPRPRPPFVPRP | 0.00109
104 | RRIRLRPPRLPRPRPRPPGHPRP | 0.224
105 | RRIRLRPPRLPRPRPRPPHVPRP | 0.989
106 | RRIRLRPPRLPRPRPRPPIHPRP | -0.117
107 | RRIRLRPPRLPRPRPRPPKWPRP | 0.532
108 | RRIRLRPPRLPRPRPRPPLQPRP | 0.67
109 | RRIRLRPPRLPRPRPRPPMEPRP | 0.347
110 | RRIRLRPPRLPRPRPRPPNGPRP | -0.0536
111 | RRIRLRPPRLPRPRPRPPNKPRP | -0.123
112 | RRIRLRPPRLPRPRPRPPNYPRP | -0.23
113 | RRIRLRPPRLPRPRPRPPPSPRP | 1.28
114 | RRIRLRPPRLPRPRPRPPPVPRP | 0.98
115 | RRIRLRPPRLPRPRPRPPQWPRP | 0.322
116 | RRIRLRPPRLPRPRPRPPRKPRP | 0.659
117 | RRIRLRPPRLPRPRPRPPRNPRP | 0.356
118 | RRIRLRPPRLPRPRPRPPRQPRP | 0.688
119 | RRIRLRPPRLPRPRPRPPSYPRP | 0.119
120 | RRIRLRPPRLPRPRPRPPWGPRP | 0.203
121 | RRIRLRPPRLPRPRPRPPWPPRP | 0.578
122 | RRIRLRPPRLPRPRPRPPWWPRP | 0.695
123 | RRIRLRPPRLPRPRPRPPYMPRP | -0.205
124 | RRIRLRPPRLPRPRPRPPYPPRP | -0.0316
125 | RRIRLRPPRLPRPRPRPQAFPRP | 0.0474

Row | Sequence | shrunken log2 fold change
126 | RRIRLRPPRLPRPRPRPQAWPRP | 0.126
127 | RRIRLRPPRLPRPRPRPQDEPRP | 0.119
128 | RRIRLRPPRLPRPRPRPQDLPRP | -0.0513
129 | RRIRLRPPRLPRPRPRPQDNPRP | -0.428
130 | RRIRLRPPRLPRPRPRPQECPRP | -0.00874
131 | RRIRLRPPRLPRPRPRPQEIPRP | -0.0701
132 | RRIRLRPPRLPRPRPRPQERPRP | -0.839
133 | RRIRLRPPRLPRPRPRPQFPPRP | 0.172
134 | RRIRLRPPRLPRPRPRPQFSPRP | -0.907
135 | RRIRLRPPRLPRPRPRPQFVPRP | -0.0035
136 | RRIRLRPPRLPRPRPRPQGAPRP | -0.145
137 | RRIRLRPPRLPRPRPRPQGIPRP | -0.0354
138 | RRIRLRPPRLPRPRPRPQISPRP | -0.272
139 | RRIRLRPPRLPRPRPRPQIVPRP | -0.0529
140 | RRIRLRPPRLPRPRPRPQIWPRP | -0.166
141 | RRIRLRPPRLPRPRPRPQLCPRP | 0.118
142 | RRIRLRPPRLPRPRPRPQMGPRP | -0.0175
143 | RRIRLRPPRLPRPRPRPQMLPRP | 0.0385
144 | RRIRLRPPRLPRPRPRPQMYPRP | -0.115
145 | RRIRLRPPRLPRPRPRPQNCPRP | 0.0117
146 | RRIRLRPPRLPRPRPRPQREPRP | 0.144
147 | RRIRLRPPRLPRPRPRPQVRPRP | 0.0635
148 | RRIRLRPPRLPRPRPRPQWNPRP | -0.289
149 | RRIRLRPPRLPRPRPRPQWTPRP | 0.107
150 | RRIRLRPPRLPRPRPRPQYTPRP | -0.909
